One block for each binder: values may come before it.
What was measured:
[1] = target: mAbs 2A4, 8G9 and 7D8, told of as a group; test: competition ELISA, told for the three mAbs together
[2] = target: mAbs 2A4, 8G9 and 7D8, told of as a group; test: competition ELISA, value told for the three mAbs together

- fold greater IC50 than murine AEF in solution [1]: 6 to 44 fold
B1: human AA amyloid (renal AA amyloid extract or tissue deposits) (protein, UniProt P0DJI8 19-94, looked up)
chain: RSFFSFLGEAFDGARDMWRAYSDMREANYIGSDKYFHARGNYDAAKRGPGGAWAAEVITDARENIQRFFGHGAEDS

- IC50 [2]: 20 µg/mL
B2: murine AA amyloid (AA fibrils, amyloid enhancing factor extract or tissue deposits) (protein, mouse, UniProt P05367 20-94, looked up)
chain: GFFSFIGEAFQGAGDMWRAYTDMKEAGWKDGDKYFHARGNYDAAQRGPGGVWAAEKISDARESFQEFFGRGHEDT
